Assay results: patent US6127136A, “Detection of dioxin-like compounds by detection of transformed Ah receptor/ARNT complex” (Paracelsian, Inc., priority 1996, dated 2000)

Columns and labels:
[1] = target: T1, transformed Ah receptor (Cavia porcellus, UniProt Q6J287); assay: mini-Ah immunoassay (DRE affinity gel, dot-blot spot density), with or without added recombinant ARNT; type: biochemical, guinea pig (male Hartley, hepatic cytosol)
T1 construct: TCDD-transformed receptor captured as heterodimer on DRE-oligonucleotide gel; recombinant ARNT added in some protocols
T1 sequence (Q6J287 10-846): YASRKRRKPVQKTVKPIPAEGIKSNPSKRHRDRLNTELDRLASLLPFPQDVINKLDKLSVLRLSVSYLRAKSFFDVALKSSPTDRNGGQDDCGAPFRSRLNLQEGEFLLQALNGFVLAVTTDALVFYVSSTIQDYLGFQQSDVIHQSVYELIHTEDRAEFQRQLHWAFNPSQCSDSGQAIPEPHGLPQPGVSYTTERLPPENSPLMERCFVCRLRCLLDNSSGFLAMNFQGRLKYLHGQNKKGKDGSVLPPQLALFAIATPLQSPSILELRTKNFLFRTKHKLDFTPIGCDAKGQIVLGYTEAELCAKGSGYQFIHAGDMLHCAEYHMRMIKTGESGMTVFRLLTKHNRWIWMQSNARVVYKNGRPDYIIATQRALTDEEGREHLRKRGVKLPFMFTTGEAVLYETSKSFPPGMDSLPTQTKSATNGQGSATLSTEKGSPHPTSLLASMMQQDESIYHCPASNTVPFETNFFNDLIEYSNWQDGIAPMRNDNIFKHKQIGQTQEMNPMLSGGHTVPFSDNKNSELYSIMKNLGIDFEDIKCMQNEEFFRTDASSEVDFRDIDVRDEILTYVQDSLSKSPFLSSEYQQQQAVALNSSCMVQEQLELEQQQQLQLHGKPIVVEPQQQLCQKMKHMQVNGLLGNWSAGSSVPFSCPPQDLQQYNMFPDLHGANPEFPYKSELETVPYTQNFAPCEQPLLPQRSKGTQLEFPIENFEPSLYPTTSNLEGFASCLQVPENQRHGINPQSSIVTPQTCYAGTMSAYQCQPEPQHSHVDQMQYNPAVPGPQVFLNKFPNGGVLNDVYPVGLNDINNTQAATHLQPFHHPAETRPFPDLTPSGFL
T1 sequence (Q0WXX3 1-790 partner): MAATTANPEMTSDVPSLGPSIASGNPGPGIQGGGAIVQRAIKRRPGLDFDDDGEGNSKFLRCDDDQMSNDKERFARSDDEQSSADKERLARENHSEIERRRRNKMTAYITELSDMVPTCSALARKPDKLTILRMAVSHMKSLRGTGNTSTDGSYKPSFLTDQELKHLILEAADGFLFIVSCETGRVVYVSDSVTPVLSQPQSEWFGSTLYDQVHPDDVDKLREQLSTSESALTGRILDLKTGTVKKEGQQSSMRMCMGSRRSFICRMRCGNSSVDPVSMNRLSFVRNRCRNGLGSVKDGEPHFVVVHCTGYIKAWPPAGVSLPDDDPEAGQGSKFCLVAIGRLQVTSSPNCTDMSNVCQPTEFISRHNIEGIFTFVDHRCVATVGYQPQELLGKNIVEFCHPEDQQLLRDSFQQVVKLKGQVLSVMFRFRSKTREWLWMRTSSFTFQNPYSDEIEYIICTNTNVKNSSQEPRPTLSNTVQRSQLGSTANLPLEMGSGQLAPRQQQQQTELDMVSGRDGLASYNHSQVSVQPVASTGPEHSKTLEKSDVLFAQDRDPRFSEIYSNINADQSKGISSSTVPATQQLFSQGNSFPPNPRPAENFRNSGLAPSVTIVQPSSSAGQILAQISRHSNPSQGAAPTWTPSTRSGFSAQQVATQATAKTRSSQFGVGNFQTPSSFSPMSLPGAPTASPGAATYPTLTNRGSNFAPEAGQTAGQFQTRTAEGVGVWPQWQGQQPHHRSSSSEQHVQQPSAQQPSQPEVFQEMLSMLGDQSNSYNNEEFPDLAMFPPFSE
Description: (§1) Male Hartley guinea pigs weighing 300-350 g were obtained from Cornell Research Animal Resources, Cornell University, Ithaca, N.Y. Guinea pigs were anaesthetized and killed with carbon dioxide. Livers were perfused in situ with 100 mL ice-cold perfusion buffer, excised, trimmed of connective tissue, poorly perfused liver and gall bladder and weighed. The liver was minced and five mL of ice-cold HEDG per gram liver were added and the whole homogenized in a 50 mL homogenizer with teflon pestle using at 200 rpm for a total of seven strokes. Crude homogenate was centrifuged at 12,500 RPM in 50 mL tubes in a JA17 rotor in a Beckman J2-MI preparative centifuge at 4 degrees C for 20 minutes.
Procedure for the mini-Ah Immuno Assay
Preparation of Buffers: 155 uM TCDD stock was prepared by dissolving 1 mg 2,3,7,8-tetrachloro-dibenzo-p-dioxin (Cambridge Isotope Labs) in 20 mL DMSO (dimethylsulfoxide) overnight. 10 uM working dilution of TCDD was prepared by diluting 0.129 mL of the stock with 1.871 mL DMSO. 4M NaCl/HEDG was prepared by adding 116.88 g sodium chloride to 300 mL HEDG and adjusting the volume to 500 mL with HEDG. 0.3 M NaCl/HEDG was prepared by diluting 1.5 mL 4 M NaCl/HEDG to 20 mL with HEDG 0.6 M NaCl/HEDG was prepared by diluting 3.0 mL 4 M NaCl/HEDG to 20 mL with HEDG TBST was prepared by dissolving 1.18 g Tris-base, 6.35 g Tris-HCl, 8.76 g NaCL, and 2 mL Tween 20 in 800 mL water, adjusting volume to 1000 mL. Blocker was prepared by dissolving 10 g non-fat dry milk (Carnation) in 200 mL TBST. AP development buffer was prepared by dissolving 11 g Tris-base, 1.6 g Tris-HCl, 5.84 g Sodium Chloride, 10.2 g Magnesium Chloride hexahydrate, in 800 mL water and adjusting the volume to 1000 mL. BCIP stock was prepared by dissolving 100 mg BCIP (5-Bromo-4-Chloro-3-Indolyl Phosphate) in 2 mL N,N-Dimethylformamide, aliquoting into 66 uL portions, and freezing at -20 C until use. NBT stock was prepared by dissolving 250 mg NBT (Nitro Blue Tetrazolium) in 25 mL water, aliquoting into 660 uL proportions, and storing at -20 C until use. BCIP/NBT developer was prepared immediately before use by mixing one 66 uL aliquot of BCIP and one 660 uL aliquot of NBT in 20 mL AP development buffer.
(§2) For a typical mini-Ah immunoassay utilizing 12 samples, 5 mL of Transformed Ah Receptor Affinity Gel slurry described above was pipeted into a 50 mL conical tube. The slurry was washed with 40 mL HEDG and centifuged at 1000 g for 5 min, the supernatant withdrawn and discarded, the pellet washed with 40 mL HEDG, and centrifuged again. After the second centrifugation all but 5 mL of supernatant was withdrawn and the gel thus resuspended in the original volume. 10 mL guinea pig hepatic cytosol was thawed. The thawed cytosol was pooled and then divided into two 5 mL groups and treated with either 5 uL DMSO or 5 uL 10 uM TCDD in DMSO.
(§3) Assembly of transformation mixture:In the preferred embodiment of the mini-Ah immunoassay, each sample was composed of one 1.5 mL microfuge tube with the following sequential additions: 90 uL 4 M NaCl/HEDG, 400 uL Transformed Ah Receptor Affinity Gel slurry and 800 uL cytosol (treated with DMSO or TCDD as described above). The three components described above are the minimum components added at that step of the mini-Ah immunoassay. Any additional materials, such as ARNT, anti-ARNT and anti-Rabbit/alkaline phosphatase conjugate, were sometimes also added at this time as described in the specific examples. After assembly of the samples, the tubes were capped and the samples incubated at room temperature for 2 hours with gentle rocking to allow transformation of the Ah receptor to take place, interaction of transformed Ah receptor and ARNT, and binding of the transformed Ah receptor as a heteromer to the DRE oligonucleotide contained on the Transformed Ah Receptor Affinity Gel.
Isolation transformed Ah receptor: After the 2 hour incubation the mixtures were pipetted into the empty column barrels and allowed to drain. […]

[2] = target: transformed Ah receptor/ARNT complex (Cavia porcellus, UniProt Q6J287); assay: mini-Ah immunoassay with anti-ARNT detection of transformed Ah receptor/ARNT complex; type: biochemical, guinea pig (male Hartley, hepatic cytosol); set-up: AHR/ARNT heterodimer on DRE gel, anti-ARNT detection; in some samples recombinant baculovirus ARNT (Bradfield) added; conditions: Example 4
Chain of transformed Ah receptor/ARNT complex (Q6J287 10-846): as the sequence (Q6J287 10-846) above
Chain of transformed Ah receptor/ARNT complex (Q0WXX3 1-790 partner): as the sequence (Q0WXX3 1-790 partner) above
Chain of transformed Ah receptor/ARNT complex (P27540 whole entry partner): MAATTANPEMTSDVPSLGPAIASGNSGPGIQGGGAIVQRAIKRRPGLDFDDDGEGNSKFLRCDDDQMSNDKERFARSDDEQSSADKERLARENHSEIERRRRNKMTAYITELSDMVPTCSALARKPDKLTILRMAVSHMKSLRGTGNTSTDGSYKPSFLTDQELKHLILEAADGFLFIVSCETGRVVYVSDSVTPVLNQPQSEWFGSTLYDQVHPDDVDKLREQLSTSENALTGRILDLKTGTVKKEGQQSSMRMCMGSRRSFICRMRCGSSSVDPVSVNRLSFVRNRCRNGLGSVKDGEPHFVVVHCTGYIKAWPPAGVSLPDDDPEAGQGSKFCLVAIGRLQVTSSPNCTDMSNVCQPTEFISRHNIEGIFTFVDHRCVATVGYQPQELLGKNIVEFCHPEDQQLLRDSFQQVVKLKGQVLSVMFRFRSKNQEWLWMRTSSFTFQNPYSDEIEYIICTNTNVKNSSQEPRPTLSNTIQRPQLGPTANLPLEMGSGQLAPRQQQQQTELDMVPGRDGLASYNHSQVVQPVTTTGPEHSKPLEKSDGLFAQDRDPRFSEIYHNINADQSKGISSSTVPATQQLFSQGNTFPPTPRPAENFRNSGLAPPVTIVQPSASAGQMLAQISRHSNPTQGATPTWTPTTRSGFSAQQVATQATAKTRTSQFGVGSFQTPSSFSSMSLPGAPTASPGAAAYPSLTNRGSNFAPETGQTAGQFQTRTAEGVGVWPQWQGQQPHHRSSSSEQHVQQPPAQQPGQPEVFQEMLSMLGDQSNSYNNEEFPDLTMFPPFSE
Description: as §1, §2, §3
Immunoprobing of transformed Ah receptor: The nitrocellulose membrane was then removed from the ELIFA apparatus, rinsed briefly with water, and placed in 20 mL blocker containing test antibody. All antibodies were incubated with the nitrocellulose membrane for one hour at room temperature. When the test antibody was anti-Ah receptor/alkaine phosphatase conjugate, 100 uL anti-Ah receptor/alkaline phosphatase conjugate (1:200), per 20 mL blocker was used. When anti-ARNT was added to the transformation mixture, anti-Rabbit/alkaline phosphatase conjugate (Sigma, St. Louis, Mo.) diluted 1:1000 (20 uL to 20 mL blocker) was used to probe the membrane. When ARNT, anti-ARNT and anti-Rabbit or anti-ARNT and anti-Rabbit was added to the transformation mixture, the Immunoprobing step was eliminated.
Immunodetection and densitometry: In all cases the nitrocellulose membrane was rinsed prior to immunodetection 3 times for 5 min each with 100 mL TBST, briefly washed in AP development buffer and developed in freshly made BCIP/NBT developer for 5 min, whereupon the color reaction was stopped by washing the membrane in water.
Quantitative data were obtained by scanning the dried membrane in a Microtek 600ZS scanner in gray scale, 300 dpi, 0% brightness, 0% contrast. Densitometric measurements of the dot-blots were made using ScanAnalysis software (Biosoft, Cambridge U.K.).
Cytosol and DRE affinity gel are prepared as described above. Cytosol is dosed with 1:1000 v/v DMSO (-) or 1:1000 v/v 10 uM 2,3,7,8-tetrachlorodibenzo-p-dioxin in DMSO (+).
Immunoprobing of transformed Ah receptor is as described above with the following probes. […]

[3] = test system: Ah receptor/ARNT complex (TCDD-transformed, endogenous in cytosol); assay: ELONA; conditions: EC50 is for TCDD dose, not DNA; 30 C, Ah-ELISA on neutravidin plate, anti-ARNT detection

Substance | effect of ARNT amount on response ([1]; 0.5 ug vs 2 ug ARNT, Example 2) | effect of ARNT addition on non-TCDD dependent transformation of the Ah receptor ([1]; ARNT 2 ug/assay, Example 1) | increase of TCDD-dependent response by ARNT addition ([1]; ARNT 2 ug/assay, Example 1) [%] | effect of ARNT addition on response [2] | EC50 [3] [nM]
ARNT: Purified recombinant ARNT (Ah Receptor Nuclear Translocator) | 0.5 ug arnt gave less response than 2 ug ARNT | did not increase non-TCDD dependent transformation of the Ah receptor | 354 | improves response | –
B-DRE (DRE-D/B-ERD) | – | – | – | – | 0.5
